Results published in patent US20240390509A1, “ANTIBODY-DRUG CONJUGATE, PREPARATION METHOD THEREFOR, AND PHARMACEUTICAL USE THEREOF” (SHANGHAI HANSOH BIOMEDICAL CO., LTD., priority 2021, published 2024).

B1: DS-1062-compound D (y = 4) (conjugate, chains of the INN, looked up)
VH: QVQLVQSGAEVKKPGASVKVSCKASGYTFTTAGMQWVRQAPGQGLEWMGWINTHSGVPKYAEDFKGRVTISADTSTSTAYLQLSSLKSEDTAVYYCARSGFGSSYWYFDVWGQGTLVTVSS
VL: DIQMTQSPSSLSASVGDRVTITCKASQDVSTAVAWYQQKPGKAPKLLIYSASYRYTGVPSRFSGSGSGTDFTLTISSLQPEDFAVYYCQQHYITPLTFGQGTKLEIK
modifications: compound D drug conjugate
B2: DS-1062 (conjugate, chains of the INN, looked up)
VH: B1 VH
VL: B1 VL
modifications: deruxtecan payload

Tests used:
Design in all cases: species or system nude mice (Balb/c Nude)
[1] = tested on: human gastric cancer NCI-N87 tumor cell transplant mouse model; test: Dose-dependent in vivo anti-tumor effect, NCI-N87 transplant mouse model (Example 11); conditions: NCI-N87 xenograft, 1 mg/kg IV Q2W, day 28
Procedure: In order to further study the inhibitory effect of antibody-drug conjugate on tumors formed in vivo, the Trop-2 positive tumor cell human gastric cancer NCI-N87 tumor cell transplant mouse model was used to evaluate the inhibitory effect of candidate molecule on tumor proliferation in vivo. 5×10^6 NCI-N87 cells were injected subcutaneously into 6-week-old nude mice (Balb/c Nude) weighing about […]. After 8 days, the average tumor volume reached 175 mm^3 and grouping was performed, and the antibody-drug conjugate was started to be injected intravenously every 2 weeks at a dose of 2 mg/kg or 1 mg/kg. The control used human IgGI isotype control antibody at a dose of 2 mg/kg. There were 5 mice in each group of the control group or the administration group. The tumor inhibition rate was calculated by measuring the tumor volume.

[2] = tested on: human head and neck cancer squamous cell carcinoma FaDu tumor cell transplant mouse model; test: In vivo efficacy, FaDu transplant mouse model; conditions: FaDu xenograft, day 17
Procedure: In order to further study the inhibitory effect of antibody-drug conjugate on tumors formed in vivo, the Trop-2 positive tumor cell human head and neck cancer squamous cell carcinoma FaDu tumor cell transplant mouse model was used to evaluate the inhibitory effect of candidate molecule on tumor proliferation in vivo. The cell suspension mixed with Matrigel in equal proportions was added, and 5×10^6 FaDu cells per animal were injected subcutaneously into 6-week-old nude mice (Balb/c Nude) weighing about […]. After 8 days, the average tumor volume reached 133 mm^3 and grouping was performed, and the antibody-drug conjugate was started to be injected intravenously at a single dose of 3 mg/kg or 1 mg/kg. The control used human IgGI isotype control antibody at a dose of 3 mg/kg. There were 5 mice in each group of the control group or the administration group. The tumor inhibition rate was calculated by measuring the tumor volume.

[3] = tested on: lung cancer Calu-3 tumor cell transplant mouse model; test: In vivo efficacy, Calu-3 transplant mouse model; conditions: Calu-3 xenograft, 10 mg/kg IV single dose, day 21
Procedure: In order to further study the inhibitory effect of antibody-drug conjugate on tumors formed in vivo, the Trop-2 positive tumor cell lung cancer Calu-3 tumor cell transplant mouse model was used to evaluate the inhibitory effect of candidate molecule on tumor proliferation in vivo. The cell suspension mixed with Matrigel in equal proportions was added, and 2×10^6 Calu-3 cells per animal were injected subcutaneously into 6-week-old nude mice (Balb/c Nude) weighing about […]. After 8 days, the average tumor volume reached 148 mm^3 and grouping was performed, and the antibody-drug conjugate was started to be injected intravenously at a single dose of 10 mg/kg. The control used human IgG1 isotype control antibody at a dose of 10 mg/kg. There were 5 mice in each group of the control group or the administration group. The tumor inhibition rate was calculated by measuring the tumor volume.

Molecule | Tumor inhibition rate [1] | Tumor inhibition rate ([2]; 1 mg/kg IV single dose) | Tumor inhibition rate ([2]; 3 mg/kg IV single dose) | Tumor inhibition rate [3]
B1 | 78.2% | – | – | –
B2 | – | 74.8% | 200% | 85.61%
